According to patent US8337813B2, “Contrast agents” (Northwestern University, priority 2007, dated 2012):
Non-standard residues stand in square brackets, D forms with d. Primed or numbered codes have the meaning given here. No end group written: not given here. *: point of attachment. DTPA′ = diethylenetriaminepentaacetic acid (Gd(III) complex) N-cap, O=C([O-])CN(CCN(CC(=O)[O-])CC(=O)[O-])CCN(CC(=O)[O-])CC(=O)*.[Gd+3]; PEG3′ = not defined here

Molecular target: T1, human recombinant MMP-7 (Homo sapiens, UniProt P09237)
T1 sequence (P09237 95-267): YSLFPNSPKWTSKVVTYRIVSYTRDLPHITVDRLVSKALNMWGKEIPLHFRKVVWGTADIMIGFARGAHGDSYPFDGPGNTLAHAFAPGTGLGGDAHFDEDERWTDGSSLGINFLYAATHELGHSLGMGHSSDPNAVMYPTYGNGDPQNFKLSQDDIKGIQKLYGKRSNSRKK
Assay: Enzymatic cleavage by MMP-7, analysed by ESI-MS
Type: biochemical
Method: During development of embodiments of the present invention, a 2 μL aliquot of human recombinant MMP-7 was thawed on ice, diluted to 50 μL with assay buffer containing 1 mM APMA, and incubated for 1 hour at 37° C. to activate the enzyme. To the activated enzyme solution was added 1 μL of a 20 mM solution of gadolinium(III)-diethylenetriaminepentaacetic acid-Ala-Pro-Leu-Ala-Leu-Trp-Ala-PEG3-Ala. The solution was incubated at 37° C. for 24 hours after which 10 μL was dissolved in 50 μL MeOH for analysis by ESI-MS.
1542.75; found negative mode 771.60, (m/2)]

Gadolinium(III)-diethylenetriaminepentaacetic Acid-Ala-Pro-Leu-Ala-Leu-Trp-Ala-PEG3-Ala ({DTPA′}-APLALWA[PEG3′]A; also: Gd(III) complexed by DTPA)
cleavage by MMP-7 (ESI-MS) (activated MMP-7, 37° C., 24 hours): revealed a peak corresponding to the MMP-7 cleavage fragment Leu-Trp-Ala-PEG3-Ala | ESI-MS of control solution lacking MMP-7 (no MMP-7): revealed only the expected uncleaved
